What follows are binders tested against human EGFR, C-terminal eGFP-tagged, on CHO-K1 cells (human, UniProt P00533 25-1210) (assay: cell-based or functional assay).

Row | Binder | EC50 CHO-K1 EGFR Low (nM); T cell activation bioassay, luciferase [nM] | EC50 CHO-K1 EGFR Med (nM); T cell activation bioassay, luciferase [nM]
1 | GOMP001_bsAb_031 (bispecific antibody, human IgG1, kappa, L234A L235A) heavy 1: QVQLVQSGAEVKKPGASVKVSCKASGYTFTSHWMHWVRKAPGQGLEWIGEFNPSNGRTNYNEEFKSKATMTVDTSTNTAYMELSSLRSEDTAVYYCASRDYDYDGRYFDYWGQGTLVTVSSASTKGPSVFPLAPSSKSTSGGTAALGCLVADYFPEPVTVSWNSGALTSGVHTFPAVLQSSGLYSLSSVVTVPSSSLGTQTYICNVNHKPSNTKVDEKVEPKSCDKTHTCPPCPAPEAAGGPSVFLFPPKPKDTLMISRTPEVTCVVVDVSHEDPEVKFNWYVDGVEVHNAKTKPREEQYNSTYRVVSVLTVLHQDWLNGKEYKCKVSNKALPAPIEKTISKAKGQPREPQVYTLPPSREEMTDNQVSLTCLVKGFYPSDIAVEWESNGQPENNYKTTPPVLMSDGSFFLASKLTVDKSRWQQGNVFSCSVMHEALHNHYTQKSLSLSPG light 1: RIQMTQSPSSLSASVGDRVTITCSASSSVTYMYWYQDKPGKAPKLLIYDTSNLASGVPSRFSGSGSGTDYTFTISSLQPEDIATYYCQQWSSHIFTFGQGTKVEIKRTVAAPSVFIFPPSDKQLKSGTARVVCLLNNFYPREAKVQWKVDNALQSGNSQESVTEQDSKDSTYSLSSTLTLSKADYEKHKVYACEVTHQGLSSPVTKSFNRGEC heavy 2: QGQLVESGGGVVQPGRSLRLSCAASGFTFRGFGMHWVRYAPGKGLEWVAIIYYDGKNKYYADRVKGRFTISRDNSKNTLYLQMNSLRAEDTAVYYCAKGGGYNWFDPWGRGTLVTVSSASTKGPSVFPLAPSSKSTSGGTAALGCLVKDYFPEPVTVSWNSGALTSGVHTFPAVLQSSGLYSLSSVVTVPSSSLGTQTYICNVNHKPSNTKVDKKVEPKSCDKTHTCPPCPAPEAAGGPSVFLFPPKPKDTLMISRTPEVTCVVVDVSHEDPEVKFNWYVDGVEVHNAKTKPREEQYNSTYRVVSVLTVLHQDWLNGKEYKCKVSNKALPAPIEKTISKAKGQPRRPRVYTLPPSREEMTKNQVSLVCLVKGFYPSDIAVEWESNGQPENNYKTTPPVLDSDGSFFLYSVLTVDKSRWQQGNVFSCSVMHEALHNHYTQKSLSLSPG light 2: DIQMTQSPSSLSASVGDRVTITCRASQSISTYLNWYQRKPGDAPKLLIYSASSLQSGVPSRFSGSGSGTDFTLTISNLQPEDFAIYYCQRSYSPPFTFGPGTKLDIRRTVAAPSVFIFPPSDEQLKSGTASVVCLLNNFYPREAKVQWKVDNALQSGNSQESVTEQDSKDSTYSLSSTLTLSKADYEKHKVYACEVTHQGLSSPVTKSFNRGEC | 1.66 | 0.446
2 | GOMP001_bsAb_032 (bispecific antibody, human IgG1, kappa, L234A L235A) heavy 1: QGQLVESGGGVVQPGRSLRLSCAASGFTFRGFGMHWVRYAPGKGLEWVAIIYYDGKNKYYADRVKGRFTISRDNSKNTLYLQMNSLRAEDTAVYYCAKGGGYNWFDPWGRGTLVTVSSASTKGPSVFPLAPSSKSTSGGTAALGCLVKDYFPEPVTVSWNSGALTSGVHTFPAVLQSSGLYSLSSVVTVPSSSLGTQTYICNVNHKPSNTKVDKKVEPKSCDKTHTCPPCPAPEAAGGPSVFLFPPKPKDTLMISRTPEVTCVVVDVSHEDPEVKFNWYVDGVEVHNAKTKPREEQYNSTYRVVSVLTVLHQDWLNGKEYKCKVSNKALPAPIEKTISKAKGQPRRPRVYTLPPSREEMTKNQVSLVCLVKGFYPSDIAVEWESNGQPENNYKTTPPVLDSDGSFFLYSVLTVDKSRWQQGNVFSCSVMHEALHNHYTQKSLSLSPG light 1: DIQMTQSPSSLSASVGDRVTITCRASQSISTYLNWYQRKPGDAPKLLIYSASSLQSGVPSRFSGSGSGTDFTLTISNLQPEDFAIYYCQRSYSPPFTFGPGTKLDIRRTVAAPSVFIFPPSDEQLKSGTASVVCLLNNFYPREAKVQWKVDNALQSGNSQESVTEQDSKDSTYSLSSTLTLSKADYEKHKVYACEVTHQGLSSPVTKSFNRGEC heavy 2: QVQLVQSGAEVKKPGASVKVSCKASGYTFTSHWMHWVRYAPGQGLEWIGEFNPSNGRTNYNEKFKSKATMTVDTSTNTAYMELSSLRSEDTAVYYCASRDYDYDGRYFDYWGRGTLVTVSSASTKGPSVFPLAPSSKSTSGGTAALGCLVKDYFPEPVTVSWNSGALTSGVHTFPAVLQSSGLYSLSSVVTVPSSSLGTQTYICNVNHKPSNTKVDKKVEPKSCDKTHTCPPCPAPEAAGGPSVFLFPPKPKDTLMISRTPEVTCVVVDVSHEDPEVKFNWYVDGVEVHNAKTKPREEQYNSTYRVVSVLTVLHQDWLNGKEYKCKVSNKALPAPIEKTISKAKGQPRRPRVYTLPPSREEMTKNQVSLVCLVKGFYPSDIAVEWESNGQPENNYKTTPPVLDSDGSFFLYSVLTVDKSRWQQGNVFSCSVMHEALHNHYTQKSLSLSPG light 2: DIQMTQSPSSLSASVGDRVTITCSASSSVTYMYWYQRKPGDAPKLLIYDTSNLASGVPSRFSGSGSGTDYTFTISSLQPEDIATYYCQQWSSHIFTFGQGTKVEIKRTVAAPSVFIFPPSDEQLKSGTASVVCLLNNFYPREAKVQWKVDNALQSGNSQESVTEQDSKDSTYSLSSTLTLSKADYEKHKVYACEVTHQGLSSPVTKSFNRGEC | 0.122 | 0.0482
3 | GOMP001_bsAb_037 (bispecific antibody, human IgG1, kappa, L234A L235A) heavy 1: QVQLVQSGAEVKKPGASVKVSCKASGYTFTSHWMHWVRKAPGQGLEWIGEFNPSNGRTNYNEEFKSKATMTVDTSTNTAYMELSSLRSEDTAVYYCASRDYDYDGRYFDYWGQGTLVTVSSASTKGPSVFPLAPSSKSTSGGTAALGCLVADYFPEPVTVSWNSGALTSGVHTFPAVLQSSGLYSLSSVVTVPSSSLGTQTYICNVNHKPSNTKVDEKVEPKSCDKTHTCPPCPAPEAAGGPSVFLFPPKPKDTLMISRTPEVTCVVVDVSHEDPEVKFNWYVDGVEVHNAKTKPREEQYNSTYRVVSVLTVLHQDWLNGKEYKCKVSNKALPAPIEKTISKAKGQPREPQVYTLPPSREEMTDNQVSLTCLVKGFYPSDIAVEWESNGQPENNYKTTPPVLMSDGSFFLASKLTVDKSRWQQGNVFSCSVMHEALHNHYTQKSLSLSPG light 1: RIQMTQSPSSLSASVGDRVTITCSASSSVTYMYWYQDKPGKAPKLLIYDTSNLASGVPSRFSGSGSGTDYTFTISSLQPEDIATYYCQQWSSHIFTFGQGTKVEIKRTVAAPSVFIFPPSDKQLKSGTARVVCLLNNFYPREAKVQWKVDNALQSGNSQESVTEQDSKDSTYSLSSTLTLSKADYEKHKVYACEVTHQGLSSPVTKSFNRGEC heavy 2: EVQLVESGGVLVKTGGSLRLSCVASGFSFKKAWMNWVRYAPGKGLEWVGRIKRNSDGGAADYAARVKDRFTLSRDDSKNTLYLQMNSLKTEDTAVYYCTTLDSSSWYVGYYYMDVWGRGTTVTVSSASTKGPSVFPLAPSSKSTSGGTAALGCLVKDYFPEPVTVSWNSGALTSGVHTFPAVLQSSGLYSLSSVVTVPSSSLGTQTYICNVNHKPSNTKVDKKVEPKSCDKTHTCPPCPAPEAAGGPSVFLFPPKPKDTLMISRTPEVTCVVVDVSHEDPEVKFNWYVDGVEVHNAKTKPREEQYNSTYRVVSVLTVLHQDWLNGKEYKCKVSNKALPAPIEKTISKAKGQPRRPRVYTLPPSREEMTKNQVSLVCLVKGFYPSDIAVEWESNGQPENNYKTTPPVLDSDGSFFLYSVLTVDKSRWQQGNVFSCSVMHEALHNHYTQKSLSLSPG light 2: DIHMTQSPSSVSASLGDRVTFTCRASQNINNWLAWYQRKPGDAPKLLIYTASSLQSGVPSRFSGSGSGTDFTLTISSLQPDDFATYYCQQAHSLPITFGQGTRLGIKRTVAAPSVFIFPPSDEQLKSGTASVVCLLNNFYPREAKVQWKVDNALQSGNSQESVTEQDSKDSTYSLSSTLTLSKADYEKHKVYACEVTHQGLSSPVTKSFNRGEC | 0.183 | 0.028

Source: patent US20230295310A1 (ABCELLERA BIOLOGICS, published 2023)
